Reference: the supplement of paper PMC10567573

B1: ANKRD40 (parent)
chain: VRIQNPSLRENDFIEIELDRQELT
B2: TRIM55 (parent)
chain: FQMEKIEHGYENMNHFTVNLNREE

Variants of: B1
Assay: protein stability index of a GFP-peptide fusion (GPS, HEK-293T) (PSI 1-6); higher = more stable
Conditions: c terminus: a fixed tail appended
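Further: lentivirally expressed fusions sorted by FACS into six bins by GFP to DsRed ratio, PSI derived from sequencing read proportions per bin multiplied by bin number.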

Protein stability index: each site, then its substitutions
R20: V 2.29; W 1.48; Y 1.84
Q21: A 2.05; C 2.15; D 1.84; E 2.82; F 1.77; G 2.32; H 2.12; I 1.31; K 2.24; L 1.8; M 2.01; N 2.99; P 2.46; R 2.24; S 2.08; T 2.47; V 1.76; W 1.73; Y 2.32
E22: A 2.36; C 1.68; D 2.87; F 2.47; G 1.92; H 2.57; I 2.73; K 2.28; L 2.61; M 1.93; N 2.34; P 2.34; Q 1.86; R 2.65; S 2.1; T 2.06; V 2.1; W 1.82; Y 2.37
L23: A 3.58; C 2.8; D 4.25; E 4.27; F 2.07; G 3.99; H 3.92; I 2.45; K 3.69; M 2.77; N 3.69; P 3.26; Q 3.44; R 3.73; S 3.89; T 3.52; V 2.95; W 2.42; Y 2.48
T24: A 2.3; C 2.14; D 3.24; E 3.16; F 1.88; G 2.92; H 2.63; I 2.19; K 2.3; L 2.09; M 2.19; N 2.48; P 2.49; Q 3.03; R 2.79; S 2.85; V 2.2; W 1.73; Y 1.59

Variants of: B2
Assay: as above
Conditions: c terminus: a fixed tail appended

Protein stability index: each site, then its substitutions
F1: A 4.71; C 3.72; D 4.61; E 5.1; G 4.78; H 4.58; I 4.23; K 4.17; L 4.05; M 4.27; N 5.02; P 4.65; Q 4.85; R 4.45; S 4.48; T 4.67; V 4.19; W 3.78; Y 3.3
Q2: A 3.14; C 2.57; D 4.1; E 4.49; F 2.69; G 3.7; H 2.28; I 2.06; K 3.49; L 2.96; M 3.42; N 3.8; P 3.86; R 3.07; S 3.98; T 3.35; W 2.62; Y 2.52
M3: A 2.57; C 2.83; D 4.53; E 5.07; F 2.86; G 3.62; H 3.43; I 2.82; K 2.68; L 2.82; N 3.36; P 2.91; Q 3.41; R 2.66; S 2.88; T 3.44; V 2.8; W 2.11; Y 3.06
E4: A 2.5; C 2.16; D 2.76; F 1.58; G 2.45; H 2.66; I 2.24; K 2.37; L 2.43; M 1.73; N 2.64; P 2.58; Q 2.42; R 2.19; S 1.9; T 2.13; V 1.8; W 1.94; Y 2.1
K5: A 2.9; C 3.14; D 4.14; E 4.2; F 1.7; G 2.93; H 2.61; I 2.24; L 2.6; M 2.83; N 3.54; P 3.55; Q 3.51; R 2.68; S 3.43; T 3.08; V 2.49; W 2.41; Y 2.16
I6: A 3.27; C 2.64; D 3.25; E 4.13; F 2.15; G 2.66; H 3.24; K 3.07; L 3.44; M 2.84; N 2.87; P 3.32; Q 3.32; R 2.6; S 3.18; T 2.87; V 3; W 2.06; Y 2.97
E7: A 2.45; C 2.42; D 2.63; F 1.44; G 2.1; H 2.66; I 2.42; K 2.05; L 2.46; M 2.46; N 2.3; P 2.6; Q 2.73; R 2.05; S 2.34; T 2.27; V 1.85; W 2.65; Y 2.1
H8: A 2.77; C 2.65; D 2.71; E 3.51; F 2.09; G 2.37; I 2.21; K 2.84; L 2.44; M 2.51; N 2.89; P 2.77; Q 2.89; R 2.74; S 3.02; T 2.73; V 3.03; W 2; Y 3.03
G9: A 3.63; C 2.33; D 3.9; E 3.38; F 2.34; H 3.22; I 2.4; K 2.81; L 2.94; M 2.45; N 3.26; P 2.93; Q 3.05; R 2.91; S 3.21; T 3.07; V 3.03; W 3.05; Y 2.11
Y10: A 3.55; C 2.74; D 3.31; E 3.74; F 3.02; G 3.31; H 2.94; I 3.14; K 2.82; L 3.08; M 3.31; N 3.27; P 3.63; Q 3.37; R 3.18; S 3.44; T 3.1; V 3.35; W 2.42
E11: A 1.82; C 1.56; D 2.55; F 2.04; G 2.14; H 1.95; I 2.31; K 2.42; L 1.81; M 1.98; N 2.16; P 2.07; Q 2.18; R 2.15; S 2.59; T 2.42; V 1.97; W 2.35; Y 2.08
N12: A 2.19; C 2.06; D 3.65; E 3.57; F 2.17; G 2.98; H 2.38; I 1.94; K 2.44; L 2.14; M 1.99; P 2.37; Q 2.51; R 2.34; S 2.3; T 2.76; V 2.04; W 1.83; Y 1.84
M13: A 3.23; C 2.93; D 3.79; E 3.67; F 2.82; G 3.75; H 3.13; I 2.52; K 2.87; L 2.61; N 3.81; P 3.51; Q 3.33; R 2.68; S 3.04; T 3.36; V 2.46; W 2.12; Y 2.38
N14: A 3.17; C 2.29; D 3.45; E 4.16; F 2.53; G 3.21; H 1.69; I 1.98; K 2.99
